Laboratory results reported in paper PMC5935684.

Target: nucleosome core particle assembled on a 149 bp long 601 DNA sequence (Xenopus laevis)
Assay: cryo-EM micrographs and 2D classification; NCPs on 149 bp 601 DNA at 150 mM NaCl; particles with a second NCP in the proximity counted by 2D classification (Relion)

nucleosome core particle assembled on a 149 bp long 601 DNA sequence (complex)
percent of particles with a second NCP in the proximity: 20%
